{"source": "patent US11938198B2", "about": "“Treatment of heart disease by disruption of the anchoring of PP2A” (University of Miami, priority 2019, dated 2024)", "molecules": {"B1": {"name": "mAKAP 1286-2083: myc-tagged rat mAKAP 1286-2083 construct deficient in PP2A binding (protein)", "chain": "VYSLHNVELHEDSHTPFLKSSPKFTGTTQPTVLTKSLSKDSSFSSTKSLPDLLGGSGLVRPYSCHSGDLSQNSGSESGIVSEGDNEMPTNSDMSLFSMVDGSPSNPETEHPDPQMGDAANVLEQKFKDNGESIKLSSVSRASVSPVGCVNGKAGDLNSVTKHTADCLGEELQGKHDVFTFYDYSYLQGSKLKLPMIMKQPQSEKAHVEDPLLGGFYFDKKSCKAKHQASESQPDAPPHERILASAPHEMGRSAYKSSDIEKTFTGIQSARQLSLLSRSSSVESLSPGGDLFGLGIFKNGSDSLQRSTSLESWLTSYKSNEDLFSCHSSGDISVSSGSVGELSKRTLDLLNRLENIQSPSEQKIKRSVSDMTLQSSSQKMPFAGQMSLDVASSINEDSPASLTELSSSDELSLCSEDIVLHKNKIPESNASFRKRLNRSVADESDVNVSMIVNVSCTSACTDDEDDSDLLSSSTLTLTEEELCLKDEDDDSSIATDDEIYEESNLMSGLDYIKNELQTWIRPKLSLTREKKRSGVTDEIKVNKDGGGNEKANPSDTLDIEALLNGSIRCLSENNGNGKTPPRTHGSGTKGENKKSTYDVSKDPHVADMENGNIESTPEREREKPQGLPEVSENLASNVKTISESELSEYEAVMDGSEDSSVARKEFCPPNDRHPPQMGPKLQHPENQSGDCKPVQNPCPGLLSEAGVGSRQDSNGLKSLPNDAPSGARKPAGCCLLEQNETEESASISSNASCCNCKPDVFHQKDDEDCSVHDFVKEIIDMASTALKSKSQPESEVAAP", "modifications": "left off: small tags and cut ends"}, "B2": {"name": "endogenous RSK3 of rat ventricular myocytes (protein)", "chain": "MELNMKKFTVRRFFSVYLRKKSRSKSSSLSRLEEEGIVKEIDISSHVKEGFEKADPSQFELLKVLGQGSYGKVFLVRKVTGSDAGQLYAMKVLKKATLKVRDRVRSKMERDILAEVNHPFIVKLHYAFQTEGKLYLILDFLRGGDLFTRLSKEVMFTEEDVKFYLAELALALDHLHGLGIIYRDLKPENILLDEEGHIKITDFGLSKEAIDHDKRAYSFCGTIEYMAPEVVNRRGHTQSADWWSFGVLMFEMLTGSLPFQGKDRKETMALILKAKLGMPQFLSAEAQSLLRALFKRNPCNRLGAGVDGVEEIKRHPFFVTIDWNKLYRKEIKPPFKPAVGRPEDTFHFDPEFTARTPTDSPGVPPSANAHHLFRGFSFVASSLVQEPSQQDVPKAPIHPIVQQLHGNNIHFTDGYEIKEDIGVGSYSVCKRCVHKATDAEYAVKIIDKSKRDPSEEIEILLRYGQHPNIITLKDVYDDGKYVYLVMELMRGGELLDRILRQRCFSEREASDVLYTIARTMDYLHSQGVVHRDLKPSNILYMDESGNPESIRICDFGFAKQLRAENGLLMTPCYTANFVAPEVLKRQGYDAACDVWSLGILLYTMLAGFTPFANGPDDTPEEILARIGSGKYALSGGNWDSISDAAKDVVSKMLHVDPQQRLTAVQVLKHPWIVNREYLSQNQLSRQDVHLVKGAMAATYFALNRTPQAPRLEPVLSSSLAQRRGMKRLTSTRL"}}, "key": {"[1]": {"test_system": "T1, myc-tagged rat mAKAP PP2A Binding Domain (myc-PBD, rat mAKAP aa 2134-2314)", "T1 sequence": "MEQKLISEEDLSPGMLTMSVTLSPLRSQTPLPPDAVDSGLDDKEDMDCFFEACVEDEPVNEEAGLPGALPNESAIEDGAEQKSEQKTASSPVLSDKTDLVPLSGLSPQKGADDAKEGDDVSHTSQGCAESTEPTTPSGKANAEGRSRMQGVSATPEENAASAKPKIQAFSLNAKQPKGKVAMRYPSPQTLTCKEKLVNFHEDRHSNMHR"}, "[2]": {"test_system": "endogenous rat mAKAPβ (native mAKAP of adult rat heart extracts and neonatal rat ventricular myocytes)"}, "[3]": {"test_system": "T2, myc-tagged rat mAKAP 1286-2083 (lacking the PP2A binding site)", "T2 sequence": "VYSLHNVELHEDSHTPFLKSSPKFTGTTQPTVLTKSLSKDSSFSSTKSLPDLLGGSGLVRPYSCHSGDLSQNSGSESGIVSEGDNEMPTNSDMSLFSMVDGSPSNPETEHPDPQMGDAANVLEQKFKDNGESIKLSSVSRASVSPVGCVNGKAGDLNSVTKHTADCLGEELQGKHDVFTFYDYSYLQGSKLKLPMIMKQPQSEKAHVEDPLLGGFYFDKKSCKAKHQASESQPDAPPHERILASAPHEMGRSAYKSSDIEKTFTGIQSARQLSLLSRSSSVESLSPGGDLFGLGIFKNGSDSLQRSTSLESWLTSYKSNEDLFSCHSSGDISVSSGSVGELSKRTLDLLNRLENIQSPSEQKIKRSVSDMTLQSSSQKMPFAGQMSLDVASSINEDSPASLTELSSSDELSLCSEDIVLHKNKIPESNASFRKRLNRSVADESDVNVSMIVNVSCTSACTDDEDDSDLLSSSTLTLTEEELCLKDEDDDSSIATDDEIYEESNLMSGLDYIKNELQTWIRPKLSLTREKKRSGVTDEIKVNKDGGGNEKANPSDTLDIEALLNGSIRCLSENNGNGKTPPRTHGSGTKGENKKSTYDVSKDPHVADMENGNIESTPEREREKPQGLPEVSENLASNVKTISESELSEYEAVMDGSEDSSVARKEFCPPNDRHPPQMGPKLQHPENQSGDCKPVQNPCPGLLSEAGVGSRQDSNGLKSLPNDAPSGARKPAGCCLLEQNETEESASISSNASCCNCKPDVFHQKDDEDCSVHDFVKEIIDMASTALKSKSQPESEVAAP"}, "[4]": {"target": "PP2A endogenous in HEK293 cells, detected as PP2A-C subunit or as okadaic acid-sensitive phosphatase activity", "test": "cell-based or functional assay"}, "PP2A": {"target": "T3, PP2A (Homo sapiens, UniProt P30153+P67775)", "T3 construct": "endogenous in cells; host or cells: HEK293", "T3 sequence (P67775 whole entry, the tested form may be a part)": "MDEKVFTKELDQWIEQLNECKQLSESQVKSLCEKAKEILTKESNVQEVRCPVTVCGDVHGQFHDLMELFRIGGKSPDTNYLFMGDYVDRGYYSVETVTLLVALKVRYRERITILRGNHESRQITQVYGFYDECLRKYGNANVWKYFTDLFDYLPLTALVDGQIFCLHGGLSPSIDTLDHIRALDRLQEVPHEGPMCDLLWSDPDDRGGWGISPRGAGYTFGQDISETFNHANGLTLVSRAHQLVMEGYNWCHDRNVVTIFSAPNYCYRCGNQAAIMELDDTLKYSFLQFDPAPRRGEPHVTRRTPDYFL", "T3 sequence (P30153 whole entry, the tested form may be a part)": "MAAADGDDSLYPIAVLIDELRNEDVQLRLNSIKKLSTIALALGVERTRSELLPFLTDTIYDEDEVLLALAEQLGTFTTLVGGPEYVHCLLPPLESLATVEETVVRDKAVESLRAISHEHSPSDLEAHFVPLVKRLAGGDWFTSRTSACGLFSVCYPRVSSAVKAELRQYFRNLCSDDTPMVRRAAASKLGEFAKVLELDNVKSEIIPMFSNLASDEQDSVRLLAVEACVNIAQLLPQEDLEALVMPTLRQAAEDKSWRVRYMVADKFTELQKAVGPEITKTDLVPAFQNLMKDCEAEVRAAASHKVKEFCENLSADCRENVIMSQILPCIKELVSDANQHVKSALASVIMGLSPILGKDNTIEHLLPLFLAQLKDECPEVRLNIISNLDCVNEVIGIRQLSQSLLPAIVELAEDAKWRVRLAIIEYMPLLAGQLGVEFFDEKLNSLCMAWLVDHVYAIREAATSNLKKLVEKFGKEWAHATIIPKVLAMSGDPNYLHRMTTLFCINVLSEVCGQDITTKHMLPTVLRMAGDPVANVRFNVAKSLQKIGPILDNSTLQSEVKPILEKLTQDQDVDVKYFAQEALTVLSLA", "test": "myc-tag immunoprecipitation of mAKAP fragments from HEK293 cells with phosphatase assay", "assay_type": "binding", "conditions": "myc-tagged fragments expressed in HEK293 cells", "description": "(§1) Immunoprecipitation—HEK293 cells were used in this project as a heterologous system lacking mAKAP in which the various wildtype and mutant proteins could be easily expressed. Cells cultured on 60 mm plates were transfected at 50%-70% confluency by the calcium phosphate method, using 6 μg of each DNA construct per plate. Cells were harvested 24 hours after transfection in 0.5 ml HSE buffer (HEPES, pH 7.4, 150 mM NaCl, 5 mM EDTA, 1% Triton X-100 and protease inhibitors). Supernatants were incubated with 3 μg antibody and 15 μl prewashed protein A- or G-agarose beads. Following overnight incubation at 4° C., the immunoprecipitates were washed three times with the same buffer. Bound proteins were analyzed by immunoblotting.\nTo measure phosphatase activity, immunoprecipitated protein complexes were washed twice in HSE buffer and once in PP2A reaction buffer. The immunoprecipitates were incubated for 30 minutes at 30° C. in 20 μl PP2A assay buffer containing 100,000 cpm [^32P]histone in the presence and absence of inhibitors. The PP2A inhibitor (Calbiochem) was used at a concentration of 30 nM. Purified I-1 was phosphorylated by PKA before using as a specific PP1 inhibitor. Reactions were terminated by the addition of 100 μl 20% TCA followed by 10 min centrifugation. TCA supernatants containing released ^32PO4 were measured by scintillation counting. […]"}, "mAKAP-bound PDE4D3": {"test_system": "mAKAP-bound PDE4D3", "test": "PDE activity associated with mAKAP immunoprecipitates from transfected HEK293 cells ([3H]cAMP)", "assay_type": "cell-based", "conditions": "unstimulated (bar 1 and 4)", "description": "as §1, with “immunoblotting. […]” for “immunoblotting.”\nAs phosphorylation of PDE4D3 Ser-54 increases phosphodiesterase activity 2 fold (Sette and Conti 1996), whether OA treatment would also increase the activity of mAKAP-bound PDE4D3 was tested. mAKAP complexes were immunoprecipitated from transfected HEK293 cells and assayed for associated phosphodiesterase activity (FIG. 8B). mAKAP-associated phosphodiesterase activity in untreated cells was detected only when mAKAP was co-expressed with PDE4D3 (FIG. 8B, bar 1, and data not shown), consistent with a previous observation that PDE4D3 accounts for all of the phosphodiesterase activity associated with mAKAP in cardiac myocytes (Dodge et al. 2001)."}, "PDE4D3 Ser-54": {"test_system": "PDE4D3 Ser-54", "test": "PDE4D3 Ser-54 phosphorylation in mAKAP immunoprecipitates from transfected HEK293 cells (phospho-specific immunoblot)", "assay_type": "cell-based", "conditions": "HEK293 cells expressing PDE4D3 and mAKAP construct lacking the PP2A binding site"}, "[5]": {"target": "T4, myc-tagged, green fluorescent protein (GFP) RBD-fusion protein (mAKAP aa 1694-1833)", "T4 chain": "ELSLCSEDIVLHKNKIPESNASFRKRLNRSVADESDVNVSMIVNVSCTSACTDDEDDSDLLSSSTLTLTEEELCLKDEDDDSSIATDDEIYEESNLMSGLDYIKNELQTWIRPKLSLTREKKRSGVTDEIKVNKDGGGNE"}, "[6]": {"test_system": "adult rat ventricular myocytes (ARVM)", "test": "ARVM morphologic hypertrophy (cell width and length by immunocytochemistry)", "assay_type": "cell-based", "conditions": "adenoviral expression, no drug", "description": "Adult rat ventricular myocyte isolation and culture: 2-3 month old rats were anesthetized using Ketamine (80-100 mg/kg) and Xylazine (5-10 mg/kg) IP following 1000 U heparinization for cardiac excision. The heart was transferred immediately into chilled perfusion buffer (NaCl 120 mM, KCl 5.4 mM, Na2HPO4·7H2O 1.2 mM, NaHCO320.0 mM, MgCl2·6H2O 1.6 mM, Taurine 5 mM, Glucose 5.6 mM, 2,3-Butanedione monoxime 10 mM) pre-equilibrated with 95% O2 and 5% CO2. After removal of extraneous tissue, the heart was attached via the aorta to a Harvard Langendorff apparatus cannula. Ca^2+-free perfusion was used to flush out remaining blood with a constant rate of 8-10 mL/min at 37° C. The heart was then digested through circulatory perfusion with 50 mL perfusion buffer containing 125 mg type II collagenase (Worthington, 245 U/mg), 0.1 mg protease (Sigma type XIV) and 0.1% BSA. After perfusion, the atria were removed and the ventricular myocytes dissociated by slicing and repetitive pipetting. The debris was filtered by a 200 μm nylon mesh, and the myocytes collected by one minute centrifugation at 50 g. Ca^2+ concentration in the buffer was gradually recovered to 1.8 mM and the myocytes were resuspended in ACCT medium (M199 Medium (Invitrogen 11150-059), Creatine 5 mM, L-carnitine 2 mM, Taurine 5 mM, HEPES 25 mM, 2,3-Butanedione monoxime 10 mM, BSA 0.2% and 1×Insulin-Transferrin-Selenium Supplement) and plated on 10 μg/ml laminin pre-coated dishes. Cells were washed with ACCT medium 1.5 hours after plating and subjected to adenoviral infection or siRNA transfection, in which 100-200 Multiplicity of Infection (MOI) of adenovirus and 100 nmol/L siRNA mixed with Dharmafect1 (Dharmacon) were used, respectively. Adrenergic agonists were added the next day, with biochemical assay and morphological measurement performed after 24 hours of stimulation.\nImmunocytochemistry: Myocytes on coverslips were fixed in 3.7% formaldehyde in PBS for 1 hour, permeabilized with 0.3% Triton X-100, and blocked in PBS containing 0.2% BSA and 1% horse serum. The slides were then sequentially incubated for 1 hour with primary and Alexa fluorescent dye-conjugated specific-secondary antibodies (Invitrogen, 1:1000) diluted in blocking buffer. The slips were washed three times with blocking buffer. 1 μg/mL Hoechst 33258 was included in the last wash stop to label nuclei. Slides were sealed in SlowFade Gold antifade buffer (Invitrogen, S36938) for fluorescent microscopy. Wide-field images were acquired using a Leica DM4000 Microscope."}}}
{"molecule": "endogenous PP2A of rat heart and rat ventricular myocytes, detected as PP2A catalytic subunit (PP2A-C)", "values": [{"measurement": "Iso-induced SRF Ser103 phosphorylation in ARVM", "setting": "[1]", "value": "PBD expression potentiated the induction of SRF Ser^103 phosphorylation in ARVM stimulated with the β-adrenergic isoproterenol"}, {"measurement": "phosphatase activity associated with mAKAP immunoprecipitates from heart extracts ([32P]histone substrate)", "setting": "[2]", "value": "3-fold enrichment of phosphatase activity over control IgG immunoprecipitates"}]}
{"molecule": "PP2A endogenous in HEK293 cells, detected as PP2A-C subunit or as okadaic acid-sensitive phosphatase activity", "values": [{"measurement": "baseline phosphorylation of mAKAP-bound PDE4D3 Ser-54", "setting": "[3]", "value": "0.49±0.19 fold of the level obtained with OA"}]}
{"molecule": "myc-tagged rat mAKAP 1286-2083 (lacking the PP2A binding site) (from UniProt Q9WVC7 1286-2083)", "values": [{"measurement": "PDE4D3 activity in myc-tag immunoprecipitates", "setting": "[4]", "value": 30, "unit": "% higher"}]}
{"molecule": "B1", "values": [{"measurement": "co-immunoprecipitation with OA-sensitive phosphatase activity", "setting": "PP2A", "value": "not"}, {"measurement": "PDE4D3 activity higher in immunoprecipitates lacking PP2A than in complexes containing the phosphatase", "setting": "mAKAP-bound PDE4D3", "value": 30, "unit": "%"}, {"measurement": "baseline phosphorylation of mAKAP-bound PDE4D3, fold of the level obtained with OA", "setting": "PDE4D3 Ser-54", "value": "0.49±0.19", "unit": "fold"}]}
{"molecule": "B2", "values": [{"measurement": "PE-induced SRF Ser103 phosphorylation in NRVM and ARVM", "setting": "[5]", "value": "inhibited PE-induced SRF Ser^103 phosphorylation in both NRVM and primary adult rat ventricular myocyte cultures"}, {"measurement": "basal ARVM morphology", "setting": "[6]", "value": "selectively increased the width"}]}
